Positions count from the first letter of the chain named. In names and notes the source's numbering stands.
T1: recombinant cynomolgus PDGF-BB (cynomolgus monkey, UniProt P01127 82-190 (human entry), limits assumed)
T1 chain: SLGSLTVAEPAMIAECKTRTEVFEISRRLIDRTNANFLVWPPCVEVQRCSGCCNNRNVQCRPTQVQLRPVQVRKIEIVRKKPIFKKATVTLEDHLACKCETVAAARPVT

B1: 4G8.3-SL-9E8.4 DVD-Ig (PR-1564012) (bispecific antibody, human IgG1, kappa, L234A L235A)
heavy: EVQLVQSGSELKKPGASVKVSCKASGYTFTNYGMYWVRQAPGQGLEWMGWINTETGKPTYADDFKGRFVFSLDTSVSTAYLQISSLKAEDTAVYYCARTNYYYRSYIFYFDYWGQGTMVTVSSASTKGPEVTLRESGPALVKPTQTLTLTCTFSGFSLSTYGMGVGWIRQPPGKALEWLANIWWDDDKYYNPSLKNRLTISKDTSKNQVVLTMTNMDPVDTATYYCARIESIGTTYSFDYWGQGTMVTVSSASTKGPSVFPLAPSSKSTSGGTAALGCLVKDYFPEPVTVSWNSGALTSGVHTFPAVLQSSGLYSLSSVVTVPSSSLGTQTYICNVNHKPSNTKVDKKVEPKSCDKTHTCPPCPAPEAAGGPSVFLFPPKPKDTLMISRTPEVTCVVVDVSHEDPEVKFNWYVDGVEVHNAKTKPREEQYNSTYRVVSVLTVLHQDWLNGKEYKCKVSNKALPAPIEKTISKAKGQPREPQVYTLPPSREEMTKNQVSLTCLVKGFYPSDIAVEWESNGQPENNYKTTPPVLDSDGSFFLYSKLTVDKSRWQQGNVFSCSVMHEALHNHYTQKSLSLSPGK
light: DTVLTQSPATLSLSPGERATLSCRASESVSTHMHWYQQKPGQAPRLLIYGASNLESGVPARFSGSGSGTDFTLTISSLEPEDFAVYFCQQSWNDPFTFGQGTKLEIKRTVAAPSVFIFPPEFVLTQSPGTLSLSPGERATLSCERSSGDIGDSYVSWYQQKPGQAPRLVIYADDQRPSGIPDRFSGSGSGTDFTLTISRLEPEDFAVYYCQSYDINIDIVFGGGTKVEIKGTVAAPSVFIFPPSDEQLKSGTASVVCLLNNFYPREAKVQWKVDNALQSGNSQESVTEQDSKDSTYSLSSTLTLSKADYEKHKVYACEVTHQGLSSPVTKSFNRGEC
notes: DVD-Ig, outer hBDB-4G8.3 (VEGF), inner hBDI-9E8.4 (PDGF); IgG1 L234A, L235A / kappa
B2: 4G8.3-LS-9E8.4 DVD-Ig (PR-1564013) (bispecific antibody, human IgG1, kappa, L234A L235A)
heavy: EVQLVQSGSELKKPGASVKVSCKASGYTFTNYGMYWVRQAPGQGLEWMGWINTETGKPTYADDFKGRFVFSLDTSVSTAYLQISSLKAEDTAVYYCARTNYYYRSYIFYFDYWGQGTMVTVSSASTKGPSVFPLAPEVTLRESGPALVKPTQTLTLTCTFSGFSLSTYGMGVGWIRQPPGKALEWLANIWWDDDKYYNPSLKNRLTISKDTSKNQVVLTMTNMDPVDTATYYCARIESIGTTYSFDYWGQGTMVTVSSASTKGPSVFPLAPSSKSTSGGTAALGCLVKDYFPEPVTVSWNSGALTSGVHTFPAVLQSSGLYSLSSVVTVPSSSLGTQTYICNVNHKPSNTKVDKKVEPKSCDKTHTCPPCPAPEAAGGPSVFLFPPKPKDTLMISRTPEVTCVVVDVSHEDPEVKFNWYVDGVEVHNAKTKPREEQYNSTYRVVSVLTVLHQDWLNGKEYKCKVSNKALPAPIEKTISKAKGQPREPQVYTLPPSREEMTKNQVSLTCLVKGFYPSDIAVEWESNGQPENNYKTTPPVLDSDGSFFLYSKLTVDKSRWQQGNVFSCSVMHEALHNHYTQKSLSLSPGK
light: DTVLTQSPATLSLSPGERATLSCRASESVSTHMHWYQQKPGQAPRLLIYGASNLESGVPARFSGSGSGTDFTLTISSLEPEDFAVYFCQQSWNDPFTFGQGTKLEIKRTVAAPEFVLTQSPGTLSLSPGERATLSCERSSGDIGDSYVSWYQQKPGQAPRLVIYADDQRPSGIPDRFSGSGSGTDFTLTISRLEPEDFAVYYCQSYDINIDIVFGGGTKVEIKGTVAAPSVFIFPPSDEQLKSGTASVVCLLNNFYPREAKVQWKVDNALQSGNSQESVTEQDSKDSTYSLSSTLTLSKADYEKHKVYACEVTHQGLSSPVTKSFNRGEC
notes: as for B1
B3: 4G8.3-GS-9E8.4 DVD-Ig (PR-1564010) (bispecific antibody, human IgG1, kappa, L234A L235A)
heavy: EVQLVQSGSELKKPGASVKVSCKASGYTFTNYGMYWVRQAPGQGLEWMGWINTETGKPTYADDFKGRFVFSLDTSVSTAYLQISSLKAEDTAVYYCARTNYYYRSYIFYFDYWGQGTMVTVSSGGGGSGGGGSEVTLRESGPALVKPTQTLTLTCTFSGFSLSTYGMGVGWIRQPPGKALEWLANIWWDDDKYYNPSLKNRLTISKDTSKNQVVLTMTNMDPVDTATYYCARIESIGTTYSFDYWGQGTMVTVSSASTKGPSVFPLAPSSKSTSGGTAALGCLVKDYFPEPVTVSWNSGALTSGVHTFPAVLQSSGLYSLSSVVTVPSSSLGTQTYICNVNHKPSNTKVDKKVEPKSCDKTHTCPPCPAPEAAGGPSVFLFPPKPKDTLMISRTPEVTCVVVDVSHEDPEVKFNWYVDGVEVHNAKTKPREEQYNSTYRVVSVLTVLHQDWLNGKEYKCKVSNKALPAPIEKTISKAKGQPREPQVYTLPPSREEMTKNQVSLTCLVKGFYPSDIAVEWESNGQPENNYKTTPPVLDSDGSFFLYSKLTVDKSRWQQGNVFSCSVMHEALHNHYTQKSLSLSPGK
light: DTVLTQSPATLSLSPGERATLSCRASESVSTHMHWYQQKPGQAPRLLIYGASNLESGVPARFSGSGSGTDFTLTISSLEPEDFAVYFCQQSWNDPFTFGQGTKLEIKRGGSGGGGSGEFVLTQSPGTLSLSPGERATLSCERSSGDIGDSYVSWYQQKPGQAPRLVIYADDQRPSGIPDRFSGSGSGTDFTLTISRLEPEDFAVYYCQSYDINIDIVFGGGTKVEIKGTVAAPSVFIFPPSDEQLKSGTASVVCLLNNFYPREAKVQWKVDNALQSGNSQESVTEQDSKDSTYSLSSTLTLSKADYEKHKVYACEVTHQGLSSPVTKSFNRGEC
notes: as for B1
B4: 4G8.3-SL-9E8.4 (g) anti-VEGF-A/anti-PDGF-BB DVD-Ig (PR-1572105) (bispecific antibody, human IgG1, kappa, L234A L235A)
heavy: EVQLVQSGSELKKPGASVKVSCKASGYTFTNYGMYWVRQAPGQGLEWMGWINTETGKPTYADDFKGRFVFSLDTSVSTAYLQISSLKAEDTAVYYCARTNYYYRSYIFYFDYWGQGTMVTVSSASTKGPEVTLRESGPALVKPTQTLTLTCTFSGFSLSTYGMGVGWIRQPPGKALEWLANIWWDDDKYYNPSLKNRLTISKDTSKNQVVLTMTNMDPVDTATYYCARIESIGTTYSFDYWGQGTMVTVSSASTKGPSVFPLAPSSKSTSGGTAALGCLVKDYFPEPVTVSWNSGALTSGVHTFPAVLQSSGLYSLSSVVTVPSSSLGTQTYICNVNHKPSNTKVDKKVEPKSCDKTHTCPPCPAPEAAGGPSVFLFPPKPKDTLMISRTPEVTCVVVDVSHEDPEVKFNWYVDGVEVHNAKTKPREEQYNSTYRVVSVLTVLHQDWLNGKEYKCKVSNKALPAPIEKTISKAKGQPREPQVYTLPPSREEMTKNQVSLTCLVKGFYPSDIAVEWESNGQPENNYKTTPPVLDSDGSFFLYSKLTVDKSRWQQGNVFSCSVMHEALHNAYTQKSLSLSPGK
light: B1 light with G231R
B5: hVEGF 4G8.3-SL-hPDGF 9E8.4 [hu IgG1/k] mut(234, 235) H435A (PR-1569579) (bispecific antibody)
heavy: B4 heavy
light: B1 light
B6: 9E10.1_GS_CL-33675 anti-VEGF-A/anti-PDGF-BB DVD-Ig (PR-1610561) (bispecific antibody, human IgG1, kappa, L234A L235A)
heavy: EIQLVQSGSELKKPGASVKVSCKASGYTFTNYGMYWVKQAPGQGLEYMGWIDTETGRPTYADDFKGRFVFSLDTSVSTAYLQISSLKAEDTAVYFCARWSGDTTGIRGPWFAYWGQGTLVTVSSGGGGSGGGGSEVTLRESGPALVKPTQTLTLTCTFSGFSLSTYGMGVGWIRQPPGKALEWLANIWWDDDKYYNPSLKNRLTISKDTSKNQVVLTMTNMDPVDTATYYCARIESSGPKYSFDYWGQGTMVTVSSASTKGPSVFPLAPSSKSTSGGTAALGCLVKDYFPEPVTVSWNSGALTSGVHTFPAVLQSSGLYSLSSVVTVPSSSLGTQTYICNVNHKPSNTKVDKKVEPKSCDKTHTCPPCPAPEAAGGPSVFLFPPKPKDTLMISRTPEVTCVVVDVSHEDPEVKFNWYVDGVEVHNAKTKPREEQYNSTYRVVSVLTVLHQDWLNGKEYKCKVSNKALPAPIEKTISKAKGQPREPQVYTLPPSREEMTKNQVSLTCLVKGFYPSDIAVEWESNGQPENNYKTTPPVLDSDGSFFLYSKLTVDKSRWQQGNVFSCSVMHEALHNAYTQKSLSLSPGK
light: DIRMTQSPSSLSASVGDRVTIECLASEDIYSDLAWYQQKPGKSPKLLIYNANGLQNGVPSRFSGSGSGTDYSLTISSLQPEDVATYFCQQYNYFPGTFGQGTKLEIKGGSGGGGSGGEIVLTQSPGTLSLSPGERATLSCRASSGSIWYSFVSWYQQKPGQAPRLLIYADDQRASGIPDRFSGSGSGTDFTLTISRLEPEDFAVYYCQSYGINIDVVFGGGTKVEIKRTVAAPSVFIFPPSDEQLKSGTASVVCLLNNFYPREAKVQWKVDNALQSGNSQESVTEQDSKDSTYSLSSTLTLSKADYEKHKVYACEVTHQGLSSPVTKSFNRGEC
B7: 4G8.3-GS-9E8.4 (g) anti-VEGF-A/anti-PDGF-BB DVD-Ig (PR-1572102) (bispecific antibody, human IgG1, kappa, L234A L235A)
heavy: EVQLVQSGSELKKPGASVKVSCKASGYTFTNYGMYWVRQAPGQGLEWMGWINTETGKPTYADDFKGRFVFSLDTSVSTAYLQISSLKAEDTAVYYCARTNYYYRSYIFYFDYWGQGTMVTVSSGGGGSGGGGSEVTLRESGPALVKPTQTLTLTCTFSGFSLSTYGMGVGWIRQPPGKALEWLANIWWDDDKYYNPSLKNRLTISKDTSKNQVVLTMTNMDPVDTATYYCARIESIGTTYSFDYWGQGTMVTVSSASTKGPSVFPLAPSSKSTSGGTAALGCLVKDYFPEPVTVSWNSGALTSGVHTFPAVLQSSGLYSLSSVVTVPSSSLGTQTYICNVNHKPSNTKVDKKVEPKSCDKTHTCPPCPAPEAAGGPSVFLFPPKPKDTLMISRTPEVTCVVVDVSHEDPEVKFNWYVDGVEVHNAKTKPREEQYNSTYRVVSVLTVLHQDWLNGKEYKCKVSNKALPAPIEKTISKAKGQPREPQVYTLPPSREEMTKNQVSLTCLVKGFYPSDIAVEWESNGQPENNYKTTPPVLDSDGSFFLYSKLTVDKSRWQQGNVFSCSVMHEALHNAYTQKSLSLSPGK
light: B3 light with G228R
B8: hVEGF 4G8.3-GS-hPDGF 9E8.4 [hu IgG1/k] mut(234, 235) H435A (PR-1569574) (bispecific antibody)
heavy: B7 heavy
light: B3 light

target: T2, recombinant human VEGF165 (human, UniProt P15692 207-395); assay: competition ELISA: DVD-Ig titrated against biotinylated hVEGF165 binding to coated hVEGFR2-Fc
T2 construct: also called hVEGF165; huVEGF-A165
Procedure: To identify molecules that could block the binding of hVEGF₁₆₅ to the hVEGF-R2 (KDR/Flk-1) receptor, a competition ELISA was performed. […] Plates were then washed four times with wash buffer (TBS, 0.05% Tween-20) and blocked with Superblock blocking buffer (Thermo Scientific, cat#37535). […] The pre-incubated sample/hVEGF₁₆₅ complex was added to the coated plate at 50 μL in duplicate and incubated for 30 minutes at 25° C. with shaking. Following incubation, plates were washed four times with wash buffer. Streptavidin-polyHRP-40 (Fitzgerald cal#65r-s104phrp) was diluted in assay diluent (10% Superblock containing 0.05% surfactamps) and added to plates (50 μL) for 45 minutes at 25° C. with shaking. Plates were washed four times with wash buffer and developed with the addition of Enhanced K-blue TMB substrate (Neogen cat#308177). The reaction was stopped with 2N sulfuric acid (VWR, cat# BDH3500-1) and the absorbance was read at 450 nm-570 nm. A decrease in observed optical density indicates the test molecule is blocking the hVEGF₁₆₅ binding to the hVEGF-R2-Fc. Data was analyzed using Softmax Pro 4.8 software and IC₅₀ values calculated using a sigmoidal dose response (variable slope) fit in GraphPad Prism 5.

T2 sequence (P15692 other isoform, or with tags, fused parts or gaps limits assumed): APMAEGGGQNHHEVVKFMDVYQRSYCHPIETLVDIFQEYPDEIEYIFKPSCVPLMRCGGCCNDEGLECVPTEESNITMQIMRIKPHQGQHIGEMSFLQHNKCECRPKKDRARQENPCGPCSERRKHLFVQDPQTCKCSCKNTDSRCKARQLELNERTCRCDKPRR

| Binder | IC50 [nM] |
| --- | --- |
| B1 | 0.086 |
| B2 | 0.092 |
| B3 | 0.126 |

target: recombinant human PDGF-BB (human, UniProt P01127 82-190); assay: cell-based or functional assay

| Binder | Co-incubation Potency IC50 (nM) hPDGF-BB (NIH-3T3 proliferation, DVD-Ig pre-incubated with excess hVEGF165) [nM] |
| --- | --- |
| B4 | 0.047 |
| B5 | 0.038 |
| B6 | 0.04 |
| B7 | 0.051 |
| B8 | 0.032 |

target: recombinant rat PDGF-BB (rat, UniProt Q05028 74-182); assay: cell-based or functional assay
Sequence (Q05028 74-182 limits assumed): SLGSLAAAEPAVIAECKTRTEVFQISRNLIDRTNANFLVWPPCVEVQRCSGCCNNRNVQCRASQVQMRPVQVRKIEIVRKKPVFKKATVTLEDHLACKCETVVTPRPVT

| Binder | Potency IC50 (nM) ratPDGF-BB (NIH-3T3 proliferation) [nM] |
| --- | --- |
| B4 | 1.3 |
| B5 | 0.994 |
| B6 | 0.038 |
| B7 | 2.2 |
| B8 | 1.51 |

target: recombinant murine PDGF-BB (mouse, UniProt P31240 82-190); assay: cell-based or functional assay
Sequence (P31240 82-190 limits assumed): as the sequence (Q05028 74-182 limits assumed) above, with V83I, V102I counted along it

| Binder | Potency IC50 (nM) mPDGF-BB (NIH-3T3 proliferation) [nM] |
| --- | --- |
| B4 | 0.096 |
| B5 | 0.15 |
| B6 | 0.032 |
| B7 | 0.174 |
| B8 | 0.134 |

Target: T1, recombinant cynomolgus PDGF-BB
Assay: cell-based or functional assay

| Binder | Potency IC50 (nM) cynoPDGF-BB (NIH-3T3 proliferation) [nM] |
| --- | --- |
| B4 | 0.142 |
| B5 | 0.144 |
| B6 | 0.035 |
| B7 | 0.139 |
| B8 | 0.139 |

target: T2, recombinant human VEGF165; assay: cell-based or functional assay

| Binder | HMVEC-d hVEGF165 Potency IC50 [nM] |
| --- | --- |
| B2 | 0.06 |
| B3 | 0.096 |

target: recombinant human PDGF-BB (human, UniProt P01127 82-190); assay: cell-based or functional assay; remark: another data set of the same source

| Binder | NIH-3T3 hPDGF-BB Potency IC50 [nM] |
| --- | --- |
| B1 | 0.365 |
| B2 | 0.152 |

— patent US20170015742A1 (published 2017)
